To fix the notation:
B1: Mouse 5E5 (antibody, V domains shown)
VH: QVQLQQSDAELVKPGSSVKISCKASGYTFTDHAIHWVKQKPEQGLEWIGHFSPGNTDIKYNDKFKGKATLTVDRSSSTAYMQLNSLTSEDSAVYFCKTSTFFFDYWGQGTTLTVSS
VL: DIVMTQSPSSLTVTAGEKVTMICKSSQSLLNSGDQKNYLTWYQQKPGQPPKLLIFWASTRESGVPDRFTGSGSGTDFTLTISSVQAEDLAVYYCQNDYSYPLTFGAGTKLELK
notes: V regions were subcloned into pFUSE-CHIg-hG1 (human IgG1) and pFUSE2-CLIg-hk (human kappa) vectors and expressed in HEK293 cells; also called mouse 5E5 antibody; 5E5VH/5E5VK
B2: Ab4 (antibody, human IgG1, V domains shown)
VH: QVQLVQSGAEVKKTGSSVKVSCKASGYTFTDHAIHWVRQAPGQALEWMGHFSPGNTDIKYNDKFKGRVTLTVDRSMSTAYMELSSLRSEDTAMYYCKTSTFFFDYWGQGTMVTVSS
VL: DIVMTQSPLSLPVTPGEPASISCKSSQSLLNSGDQKNYLTWYLQKPGQSPQLLIYWASTRESGVPDRFSGSGSGTDFTLKISRVEAEDVGVYYCQNDYSYPLTFGGGTKVEIK
notes: Expressed as human IgG1/kappa from pFUSE-CHIg-hG1 and pFUSE2-CLIg-hk vectors; also called 5E5RHA8 / 5E5RKB
B3: Ab1 (antibody, V domains shown)
VH: B2 VH
VL: DIVMTQSPDSLAVSLGERATINCKSSQSLLNSGDQKNYLTWYQQKPGQPPKLLIYWASTRESGVPDRFSGSGSGTDFTLTISSLQAEDVAVYYCQNDYSYPLTFGQGTKVEIK
notes: Expressed as human IgG1/kappa from pFUSE-CHIg-hG1 and pFUSE2-CLIg-hk vectors; also called 5E5RHA8 / 5E5RKA
B4: Ab6 (antibody, human IgG1, V domains shown)
VH: EVQLVESGAEVKKPGASVEVSCQASGYTFTDHAIHWVRQAPGQGLEWMGHFSPGNTDIKYNDKFKGRVTMTVDRSINTAYMELRRLRSDDTAVYYCKTSTFFFDYWGQGTMVTVSS
VL: B2 VL
notes: Expressed as human IgG1/kappa from pFUSE-CHIg-hG1 and pFUSE2-CLIg-hk vectors; also called 5E5RHC9 / 5E5RKB
B5: Ab5 (antibody, human IgG1, V domains shown)
VH: EVQLVQSGAEVKKPGESLKISCKISGYIFTDHAIHWVRQMPGKGLEWMGHFSPGNTDIKYNDKFKGQVTLSVDRSINTAYLQWSSLKASDTAIYFCKTSTFFFDYWGQGTRVTVSS
VL: B2 VL
notes: Expressed as human IgG1/kappa from pFUSE-CHIg-hG1 and pFUSE2-CLIg-hk vectors; also called 5E5RHB10 / 5E5RKB
B6: Ab2 (antibody, V domains shown)
VH: B5 VH
VL: B3 VL
notes: Expressed as human IgG1/kappa from pFUSE-CHIg-hG1 and pFUSE2-CLIg-hk vectors; also called 5E5RHB10 / 5E5RKA
B7: Ab3 (antibody, V domains shown)
VH: B4 VH
VL: B3 VL
notes: Expressed as human IgG1/kappa from pFUSE-CHIg-hG1 and pFUSE2-CLIg-hk vectors; also called 5E5RHC9 / 5E5RKA

As a reminder, the EC50 is the concentration that produces a half-maximal response. A high value points to lower potency in that assay.

In this experiment the target is T1, Tn-MUC1 on ZR-75-1 cells (human, UniProt P15941 24-1255, Tn glycoform (GalNAcα1-O-Ser/Thr) as expressed by the cells).
T1 construct: whole, on cells; also called ZR-75-1 cell line, which expresses Tn-MUC1; Tn-MUC1(+ve) cell line ZR75-1
T1 sequence (P15941 24-1255): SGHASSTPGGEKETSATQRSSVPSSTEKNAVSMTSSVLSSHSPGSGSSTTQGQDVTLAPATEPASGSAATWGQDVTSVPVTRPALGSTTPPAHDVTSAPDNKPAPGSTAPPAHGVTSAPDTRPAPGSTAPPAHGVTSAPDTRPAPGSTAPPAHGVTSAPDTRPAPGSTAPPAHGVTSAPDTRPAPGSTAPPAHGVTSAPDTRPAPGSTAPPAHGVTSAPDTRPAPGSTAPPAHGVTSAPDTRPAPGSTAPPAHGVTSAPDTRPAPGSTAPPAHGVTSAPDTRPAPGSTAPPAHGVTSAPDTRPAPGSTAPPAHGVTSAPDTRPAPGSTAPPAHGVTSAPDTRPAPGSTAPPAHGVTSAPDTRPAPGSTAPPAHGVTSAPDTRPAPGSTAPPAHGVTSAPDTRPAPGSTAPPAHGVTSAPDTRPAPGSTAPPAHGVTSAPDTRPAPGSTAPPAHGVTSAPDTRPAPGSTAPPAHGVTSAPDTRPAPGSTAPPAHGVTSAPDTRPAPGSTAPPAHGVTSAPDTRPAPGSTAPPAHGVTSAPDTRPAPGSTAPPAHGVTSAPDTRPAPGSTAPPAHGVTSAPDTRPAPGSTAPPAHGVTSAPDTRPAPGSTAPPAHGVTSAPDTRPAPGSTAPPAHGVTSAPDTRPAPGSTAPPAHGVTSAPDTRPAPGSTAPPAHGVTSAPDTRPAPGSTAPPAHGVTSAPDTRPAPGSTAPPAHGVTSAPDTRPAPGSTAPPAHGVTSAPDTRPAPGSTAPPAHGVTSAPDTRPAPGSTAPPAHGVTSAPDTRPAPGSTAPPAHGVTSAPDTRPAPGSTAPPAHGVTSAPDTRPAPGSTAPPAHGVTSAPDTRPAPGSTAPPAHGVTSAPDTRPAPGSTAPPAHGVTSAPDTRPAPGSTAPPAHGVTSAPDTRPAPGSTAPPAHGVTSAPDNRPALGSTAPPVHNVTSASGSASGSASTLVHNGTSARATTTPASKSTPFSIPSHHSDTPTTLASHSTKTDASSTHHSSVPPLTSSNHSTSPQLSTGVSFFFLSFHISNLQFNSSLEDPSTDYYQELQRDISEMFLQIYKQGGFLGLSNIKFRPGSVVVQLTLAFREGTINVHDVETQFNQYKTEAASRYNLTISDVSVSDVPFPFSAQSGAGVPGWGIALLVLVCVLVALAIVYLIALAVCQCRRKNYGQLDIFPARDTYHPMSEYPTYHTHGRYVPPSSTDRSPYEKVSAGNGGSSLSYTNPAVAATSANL
As to the kind of experiment: flow cytometry on ZR-75-1 cells (protocol 6). As to the method: Exponentially growing cells are suspended by incubation with cell dissociation buffer enzyme-free, Hanks-based (Gibco 13150-016) following the manufacturer's instructions. A cell count/viability is done on a dilution of 10 ul cells+Trypan Blue, 10 ul, with a haemocytomer. The suspension is centrifuged and the cell pellet re-suspended in binding buffer at 3×10̂6 per ml. If significant levels of aggregates are present in the cell count, the suspension is filtered to remove aggregates. The cell suspension is dispensed (50 ul/well) in 96 well U-bottom plates and cooled on ice for 10 minutes. Primary antibody (50 ul/well) diluted in binding buffer (typically 1 ug per ml or less) is added to each well and incubated at 4° C. for 1 hour. The microplate is centrifuged 5 min at 300-400 g at 4° C., flicked to remove the supernatant and then the cell pellet re-suspended in 200 uL of wash buffer (PBS, 0.1% sodium azide). Centrifugation and re-suspension are done 4 times in all. After the last centrifugation, cells are re-suspended in 50 uL of binding buffer containing the biotin labelled conjugate 1:250 (kept at −20 C: Biotin-SP-AffiniPure F(ab′)2 Fragment Goat antihuman IgG (H+L); Jackson 109-066-088). Cells are incubated for 1 hour at 4 C, then washed 4 times as before. Cells are resuspended in 50 ul of binding buffer containing Streptavidin, Alexa Fluor® 488 conjugate (Life Technologies s11223) diluted 1:250 and Fixable Viability Dye eFluor@780 (eBioscience 65-0865) diluted 1:2000, The cells are incubated at 4° C. for 1 hour and then washed 3 times, as above. Cells are then re-suspended in PBS if reading immediately or fixed in 100 ul of paraformaldehyde (2% (w/v) in PBS) and analysed with by flow cytometer (Accuri C6), gating on live cells which have a lower Fixable Viability Dye MFI compared to dead cells.
IgG binding potency to Tn-MUC1 was measured as per protocol 4 and binding to the ZR-75-1 cell line, which expresses Tn-MUC1, was measured as per protocol 6.
(In flow cytometry, cells or beads pass a laser one at a time.)
In the case of B1, the EC50 amounted to 0.0283 µg/mL.

The molecule B2 showed an EC50 of 0.0423 µg/mL.

B3 had an EC50 of 0.00986 µg/mL. This EC50 lies about 4.3-fold lower than the previous one.

In turn, B4 showed an EC50 of 0.0413 µg/mL.

As to B5, the EC50 amounted to 0.0184 µg/mL.

Take B6: a half-maximal effect (EC50) was put at 0.0168 µg/mL. The EC50 values of the last two molecules are within 1.5-fold of each other.

Consider B7, for which the midpoint of the response, the EC50, lay at 0.0268 µg/mL.

These data come from patent US20170267778A1 (ADC THERPEUTICS S A, published 2017).
